What was measured:
[1] = molecular target: T1, human PVRIG on Jurkat-hPVRIG cells (human, UniProt Q6DKI7 41-326); test: cell-based or functional assay
T1 sequence (looked up): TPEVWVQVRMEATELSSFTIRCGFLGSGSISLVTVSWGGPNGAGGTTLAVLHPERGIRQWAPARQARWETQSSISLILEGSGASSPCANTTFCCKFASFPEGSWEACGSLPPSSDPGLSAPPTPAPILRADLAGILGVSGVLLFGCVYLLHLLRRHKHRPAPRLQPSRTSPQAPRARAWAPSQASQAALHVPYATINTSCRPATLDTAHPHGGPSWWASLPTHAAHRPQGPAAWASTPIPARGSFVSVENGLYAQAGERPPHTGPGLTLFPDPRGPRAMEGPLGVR

[2] = molecular target: T1, human PVRIG on Jurkat-hPVRIG cells; test: flow cytometry on Jurkat-hPVRIG cells
Procedure: The cells were inoculated at a density of 2×10⁶/ml in 96-well plate, 100 μl/well. 4-fold gradient dilutions of antibodies (0-66.7 nM) were added to incubate at 4° C. for 1 h. Goat anti-human secondary antibody was added, and the cells were labeled in the dark at 4° C. for 45 min. After the cells were collected and washed, the fluorescence intensity of the cells was read by flow cytometry. […] At the same time, the affinity of Hab43F7C9.12 in recognizing cell surface PVRIG is better than that of the control molecule SRF813.

[3] = molecular target: T2, cynomolgus monkey PVRIG on 293T-cynoPVRIG cells (cynomolgus monkey, UniProt A0A2K5WVV8 41-322); test: flow cytometry on 293T-cynoPVRIG cells
T2 construct: whole, on cells; also called full-length monkey PVRIG
T2 sequence: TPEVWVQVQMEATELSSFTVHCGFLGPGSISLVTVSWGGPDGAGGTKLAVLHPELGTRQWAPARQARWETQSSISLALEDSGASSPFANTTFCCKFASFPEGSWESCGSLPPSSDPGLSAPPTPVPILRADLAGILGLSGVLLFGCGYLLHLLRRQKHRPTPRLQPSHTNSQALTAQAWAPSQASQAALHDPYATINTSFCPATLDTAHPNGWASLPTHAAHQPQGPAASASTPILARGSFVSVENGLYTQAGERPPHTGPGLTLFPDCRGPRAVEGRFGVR
Procedure: The cells were seeded in a 96-well plate at a density of 2×10⁶, 100 μl/well, then washed three times with FACS buffer and the supernatant was discarded. Antibodies diluted with PBS buffer (0-2.5 nM) in a gradient were added to incubate at 4° C. for 1 h. The cells were washed three times with FACS buffer, and then labeled with Alexa Fluor 488-labeled goat anti-human IgG antibody at 4° C. in the dark for 45 min. The cells were washed three times with FACS buffer, and the fluorescence intensity of the cells was read by flow cytometry.

[4] = molecular target: T3, recombinant cynomolgus monkey (Cyno) PVRIG protein (cynomolgus monkey, UniProt A0A2K5WVV8 41-171); test: ELISA, Cyno-PVRIG protein coated at 500 ng/ml
T3 construct: also called soluble cynomolgus monkey PVRIG
T3 sequence: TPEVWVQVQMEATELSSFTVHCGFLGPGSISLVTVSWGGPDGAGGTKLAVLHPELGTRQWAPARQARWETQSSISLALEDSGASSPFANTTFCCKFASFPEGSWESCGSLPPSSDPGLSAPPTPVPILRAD
Procedure: The affinity of humanized antibody to recombinant cynomolgus monkey (Cyno) PVRIG protein was determined by ELISA. The Cyno-PVRIG protein was diluted to 500 ng/ml, and coated on the ELISA plate. After blocking, a 3-fold gradient dilution of the antibody (0-33.3 nM) was added. After incubation with goat anti-human secondary antibody for 1 hour, the plate was washed and the color was developed to read.

[5] = molecular target: T4, recombinant human PVRIG protein (PVRIG extracellular full-length protein) (human, UniProt Q6DKI7 41-171); test: ELISA, human PVRIG protein coated at 500 ng/ml
T4 construct: also called recombinant PVRIG protein; soluble PVRIG
T4 sequence: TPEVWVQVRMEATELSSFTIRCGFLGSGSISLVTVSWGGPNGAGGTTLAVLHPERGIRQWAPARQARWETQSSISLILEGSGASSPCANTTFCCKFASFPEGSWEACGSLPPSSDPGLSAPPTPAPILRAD
Procedure: The affinity of humanized antibody to recombinant human PVRIG protein was determined by ELISA. The PVRIG protein was diluted to 500 ng/ml, and coated on the ELISA plate. After blocking, 3-fold gradient dilution of antibody (0-66.7 nM) was added, then performed color development and reading after incubation with goat anti-human secondary antibody.

human PVRIG-His protein = molecular target: T5, human PVRIG-His protein (human, UniProt Q6DKI7 41-171, limits assumed); test: BLI (Fortebio), PVRIG-His on HIS1K biosensor, antibody as analyte
T5 construct: not shown: His tag
T5 sequence (looked up): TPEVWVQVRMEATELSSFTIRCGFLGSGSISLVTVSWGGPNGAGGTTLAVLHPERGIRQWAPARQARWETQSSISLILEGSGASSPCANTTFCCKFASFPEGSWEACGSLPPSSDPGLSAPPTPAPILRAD
Procedure: The HIS1K biosensor was used, and human PVRIG-His protein was immobilized on the biosensor to a binding response threshold of 0.3 nm. After a 120 s baseline step, the sensor was immersed in an anti-PVRIG antibody diluted with 0.02% PBST buffer, with a starting antibody concentration of 25 nM, performing gradient dilution of 2-fold concentration with 7 gradients set. The binding and dissociation time of the immobilized substance and the analyte were 120 s and 300 s, respectively. The affinity data of antigen and antibody was calculated by regression analysis software based on the binding curve.

PVRIG-hFc protein [6] = molecular target: T6, PVRIG-hFc protein (human, UniProt Q6DKI7 41-171, limits assumed); test: blocking ELISA: antibody titrated against PVRIG-hFc binding to coated CD112-His
T6 construct: also called human PVRIG protein; not shown: human Fc (hFc)
T6 sequence (looked up): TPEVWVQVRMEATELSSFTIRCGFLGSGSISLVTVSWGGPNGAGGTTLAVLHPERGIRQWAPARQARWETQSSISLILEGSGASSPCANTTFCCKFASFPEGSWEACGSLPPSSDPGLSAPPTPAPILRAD
Procedure: The ELISA method was used to determine the ability of humanized PVRIG antibody to block the binding of human CD112 protein to human PVRIG protein. The CD112-His protein was diluted to a concentration of 1 μg/ml, and coated on the ELISA plate. A 3-fold gradient dilution of the antibody (0-133 nM) was mixed with the PVRIG-hFc protein and added to the coated ELISA plate to incubate at 37° C. for 1 hour. After washing the plate, the HRP-labeled goat anti-human Fc antibody was added to incubate at 37° C. for 1 hour. After washing the plate, the color developing solution was added, then adding the stop solution after 5 minutes and reading the results. The blocking results of the antibodies obtained are shown in FIG. 6 and Table 12 after GraphPad fitting. […] At the same time, Hab1B10E8.6, Hab21F10C10.12 and Hab43F7C9.12 have better ELISA blocking ability than the control molecule SRF813.

PVRIG-hFc protein [7] = molecular target: T6, PVRIG-hFc protein; test: blocking flow cytometry: antibody titrated against PVRIG-hFc (1 ug/ml) binding to 293T-CD112 cells
Procedure: The cells were washed three times with FACS buffer, and then labeled with Alexa Fluor 488-labeled goat anti-human IgG antibody at 4° C. in the dark for 50 min. Then the cells were washed three times with FACS buffer, and the fluorescence intensity of the cells was read by flow cytometry.

[8] = molecular target: T4, recombinant human PVRIG protein (PVRIG …); test: ELISA, PVRIG extracellular protein coated at 500 ng/ml
Procedure: VH and VL were respectively constructed into a eukaryotic expression vector comprising hIgG1-kappa constant region. The obtained eukaryotic expression vector was transiently transfected into HEK-293 cells and cultured for 6 days. The culture supernatant was harvested and purified by Protein A to obtain target antibodies, which were named 21F10C10-hIgG1 and 43F7C9-hIgG1, respectively. The affinity of the antibodies to the recombinant PVRIG protein was determined by ELISA. The PVRIG extracellular full-length protein diluted to a concentration of 500 ng/ml was coated on the ELISA plate. The plate was washed 3 times with PBST buffer, and then 200 μl of PBS buffer containing 2% BSA was added, and the plate was blocked at 37° C. for 2 h. After the blocking was completed, the plate was washed 3 times with PBST buffer; 3-fold gradient dilutions of the test antibody (0-33.3 nM) were added, incubated at 37° C. for 2 h; then the plate was washed 3 times with PBST buffer. Horseradish peroxidase-labeled goat anti-human antibody was added, incubated at 37° C. for 1 h; then the plate was washed three times with PBST buffer. TMB single-component color developing solution was added for color development, reading the absorbance value after adding the stop solution.

B1: Hab1B10E8.6 (antibody, V domains shown)
VH: QVQLVQSGAEVKKPGASVKVSCKASGYSFPSYWMHWVRQAPGQGLEWIGEINPSNGLTNYNEQFRNRVTMTVDTSTSTVYMELSSLRSEDTAVYYCARHHGSTYYALDSWGQGTLVTVSS
VL: DIVMTQSPDSLAVSLGERATINCKSSQSLLNSINQKNFLAWYQQKPGQPPKLLVYFASTRESGVPDRFSGSGSGTDFTLTISSLQAEDVAVYFCQQHYSTPPTFGGGTKLEIK
notes: Humanized antibody; also called Hab1B10E8-VH.1b + Hab1B10E8-VL.1b
[1]
  EC50 (nM) of reporter genes: 0.184 nM
[2]
  EC50: 0.0501 nM
[3]
  EC50: 0.124 nM
[4]
  EC50: 0.141 nM
[5]
  EC50: 0.0869 nM
Human PVRIG-His protein
  Kd: < 0.001 nM
  koff: < 1e-07 s⁻¹
  kon: 782000 M⁻¹ s⁻¹
PVRIG-hFc protein [6]
  EC50: 0.285 nM
PVRIG-hFc protein [7]
  EC50: 2.56 nM

B2: 43F7C9-hIgG1 (antibody, V domains shown)
VH: DVQLQESGPGLVKPSQSLSLTCTVTGYSITSDYAWNWIRQFPGNRLEWMGYIRYNGNTNYNPSLKSRISITRDTSKNQFFLQLNSVTTEDTATYYCAIIYYDYDGFVYWGQGTLVTVSA
VL: DILLTQSPATLSVTPGETVSLSCRASQNVYENLHWYQQKSHRSPRLLIKFASDSISGIPSRFTGSGSGTDYTLSINSVKPEDEGIYYCLQLYSTPYTFGGGTELEIK
notes: also called 43H7C9-hIgG1; 43H7C9
[8]
  EC50: 0.29 nM

B3: SRF813-IgG1 (antibody, V domains shown)
VH: QVQLVQSGAEVKKPGSSVKVSCKASGGTFSSAAISWVRQAPGQGLEWMGNIIPIVGIANYAQKFQGRVTITADESTSTAYMELSSLRSEDTAVYYCARDTGRGYTRHFWFDPWGQGTLVTVSS
VL: DIQMTQSPSSLSASVGDRVTITCRASQSISSYLNWYQQKPGKAPKLLIYAASSLQSGVPSRFSGSGSGTDFTLTISSLQPEDFATYYCQQSDILYTFGGGTKVEIK
[1]
  EC50 (nM) of reporter genes: 0.963 nM
[2]
  EC50: 0.0497 nM
[3]
  EC50: 0.15 nM
PVRIG-hFc protein [6]
  EC50: 0.431 nM

B4: 21F10C10-hIgG1 (antibody, V domains shown)
VH: QVQLQQSGAELVRPGTSVKVSCKASGYAFINNFIEWVKQRPGQGLEWIGVINPGSGDANYNEKFKGKATLTADKSSTTAYIQLSSLTSDDSAVYFCASHWLAYWGQGTLVTVSA
VL: DIVMTQSPSSLSVSAGEKVTMSCKSSQSLLSSGNQKNYLAWYQQKPGQPPKLLIYGASTRESGVPDRFTGSGSGTDFTLTISSVQAEDLAVYYCQNGHFYPYTFGGGTKLEIK
notes: also called 21F10C10 chimeric antibody
[8]
  EC50: 0.122 nM

B5: Hab43F7C9.12 (antibody, V domains shown)
VH: QVQLQESGPGLVKPSETLSLTCTVSGYSISSDYAWNWIRQPPGKGLEWIGYIRYNGNTNYNPSLKSRVTISVDTSKNQFSLKLSSVTAADTAVYYCAIIYYDYDGFVYWGQGTTVTVSS
VL: DIQMTQSPSSLSASVGDRVTITCRASQNVYENLHWYQQKPGKAPKLLIKFASDSISGVPSRFSGSGSGTDFTLTISSLQPEDFATYYCLQLYSTPYTFGGGTKLEIK
notes: Humanized antibody; also called Hab43F7C9-VH.1d + Hab43F7C9-VL.1c; 43H7C9.12
[1]
  EC50 (nM) of reporter genes: 0.0651 nM
[2]
  EC50: 0.0178 nM
[3]
  EC50: 0.108 nM
[4]
  EC50: 0.0797 nM
[5]
  EC50: 0.145 nM
Human PVRIG-His protein
  Kd: < 0.001 nM
  koff: < 1e-07 s⁻¹
  kon: 963000 M⁻¹ s⁻¹
PVRIG-hFc protein [6]
  EC50: 0.258 nM
PVRIG-hFc protein [7]
  EC50: 1.46 nM

B6: Hab21F10C10.12 (antibody, V domains shown)
VH: QVQLVQSGAEVKKPGASVKVSCKASGYTFINNFIEWVRQAPGQGLEWMGVINPGSGDANYAQKFQGRVTMTRDTSISTAYMELSRLRSDDTAVYYCASHWLAYWGQGTTVTVSS
VL: EIVMTQSPPTLSLSPGERVTLSCRSSQSLLSSGNQKNYLSWYQQKPGQAPRLLIYGASTRETGIPARFSGSGSGTDFTLTISSLQPEDFAVYYCQNGHFYPYTFGGGTKLEIK
notes: Humanized antibody; also called Hab21F10C10-VH.1d + Hab21F10C10-VL.1c
[1]
  EC50 (nM) of reporter genes: 0.164 nM
[2]
  EC50: 0.0553 nM
[3]
  EC50: 0.267 nM
[4]
  EC50: 0.364 nM
[5]
  EC50: 0.165 nM
Human PVRIG-His protein
  Kd: < 0.001 nM
  koff: < 1e-07 s⁻¹
  kon: 837000 M⁻¹ s⁻¹
PVRIG-hFc protein [6]
  EC50: 0.226 nM
PVRIG-hFc protein [7]
  EC50: 2.52 nM
